Patent US20200277350A1 (DINGFU BIOTARGET, published 2020)

Biological target: T1, Human IL10R1 (R&D, 9100-R1-050) (human, UniProt Q13651 22-235)
T1 construct: Bought protein coated on the ELISA plate; also called hIL10R1; human IL10R1 proteins
T1 sequence (looked up): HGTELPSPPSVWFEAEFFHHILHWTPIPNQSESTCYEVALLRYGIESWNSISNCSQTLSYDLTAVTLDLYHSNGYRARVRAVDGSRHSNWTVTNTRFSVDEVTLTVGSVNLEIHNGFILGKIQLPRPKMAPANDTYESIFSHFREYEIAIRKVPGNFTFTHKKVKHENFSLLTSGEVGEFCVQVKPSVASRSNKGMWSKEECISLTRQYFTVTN
Test: ELISA, plate coated with human IL10R1, detection with goat anti-hIgG-HRP
Description: Human IL10R1 (R&D, 9100-R1-050) was diluted to 5 μg/mL with coating buffer (50 mM Na₂CO₃, NaHCO₃ pH 9.6), 100 μL/well, overnight at 4° C. After washing, the plates were sealed with 3% BSA-PBS for 1 h at 37° C. Then, all samples were respectively diluted from 10000 ng/mL and were diluted 3-fold to a total of 11 concentrations, with the diluent (1% BSA-PBS) as a control, incubated at 37° C. for 2 h. After washing, Goat anti-hIgG-HRP (Sigma, A0170) was added and incubated at 37° C. for 1 h. The soluble one-component TMB substrate developing solution was added, and the developing was performed in dark at room temperature for 5-10 min. 2 N H₂SO₄ 50 μL/well was added to terminate the color development reaction.

B1: Reverse-(IL10)2-Fc9 (Fc fusion)
chain 1: EPKSSDKTHTCPPCPAPELLGGPSVFLFPPKPKDTLMISRTPEVTCVVVDVSHEDPEVKFNWYVDGVEVHNAKTKPREEQYNSTYRVVSVLTVLHQDWLNGKEYKCKVSNKALPAPIEKTISKAKGQPREPQVYTLPPSRDELTKNQVSLSCGVKGFYPSDIAVEWESNGQPENNYKTTPPVLDSDGSFKLASKLTVDKSRWQQGNVFSCSVMHEALHNHYTQKSLSLSPGKGGGGSGGGGSGGGGSSPGQGTQSENSCTHFPGNLPNMLRDLRDAFSRVKTFFQMKDQLDNLLLKESLLEDFKGYLGCQALSEMIQFYLEEVMPQAENQDPDIKAHVNSLGENLKTLRLRLRRCHRFLPCENKSKAVEQVKNAFNKLQEKGIYKAMSEFDIFINYIEAYMTMKIRNGGGGSGGGGSGGGGSSPGQGTQSENSCTHFPGNLPNMLRDLRDAFSRVKTFFQMKDQLDNLLLKESLLEDFKGYLGCQALSEMIQFYLEEVMPQAENQDPDIKAHVNSLGENLKTLRLRLRRCHRFLPCENKSKAVEQVKNAFNKLQEKGIYKAMSEFDIFINYIEAYMTMKIRN
chain 2: DKTHTCPPCPAPELLGGPSVFLFPPKPKDTLMISRTPEVTCVVVDVSHENPEVKFNWYVDGVEVHNAKTKPREEQYNSTYRVVSVLTVLHQDWLNGKEYKCKVSNKALPAPIEKTISKAKGQPREPQVYTLPPSRDELTKNQVSLWCLVKGFYPSDIAVEWESNGQPENNYKTTPPVLDSDGSFFLYSALTVDKSRWQQGNVFSCSVMHEALHNHYTQKSLSLSPGK
notes: also called proteinaceous heterodimer of Group C
Q: For B1, which EC50 is on record?
A: 0.0123 µg/mL
